Measured values reported in the supplement of paper PMC10567573.

B1: TRIM43 (parent)
chain: RAQMIRNEYRKLHPVLHKEEKQHL

Variants of: B1
Assay: protein stability index of a GFP-peptide fusion (GPS, HEK-293T) (PSI 1-6); higher = more stable
Settings: c terminus: a fixed tail appended
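Further: lentivirally expressed fusions sorted by FACS into six bins by GFP to DsRed ratio, PSI derived from sequencing read proportions per bin multiplied by bin number.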

Variant	protein stability index
RAQMIRNEMRKLHPVLHKEEKQHL	3.97
RAQMIRNEPRKLHPVLHKEEKQHL	3.93
RAQMIRNECRKLHPVLHKEEKQHL	3.79
RAQMIRNENRKLHPVLHKEEKQHL	3.79
RAQMIRNEKRKLHPVLHKEEKQHL	3.65
RAQMIRNEERKLHPVLHKEEKQHL	3.96
RAQMIRNESRKLHPVLHKEEKQHL	3.46
RAQMIRNEDRKLHPVLHKEEKQHL	4.24
RAQMIRNEFRKLHPVLHKEEKQHL	3.35
RAQMIRNEHRKLHPVLHKEEKQHL	4.12
RAQMIRNELRKLHPVLHKEEKQHL	3.25
RAQMIRNEGRKLHPVLHKEEKQHL	3.96
RAQMIRNERRKLHPVLHKEEKQHL	3.84
RAQMIRNEARKLHPVLHKEEKQHL	4.04
RAQMIRNEIRKLHPVLHKEEKQHL	3.03
RAQMIRNEQRKLHPVLHKEEKQHL	4.31
RAQYIRNEYRKLHPVLHKEEKQHL	2.74
RAQWIRNEYRKLHPVLHKEEKQHL	2.44
RAQSIRNEYRKLHPVLHKEEKQHL	3.07
RAQTIRNEYRKLHPVLHKEEKQHL	3.69
RAQVIRNEYRKLHPVLHKEEKQHL	3.39
RAQMYRNEYRKLHPVLHKEEKQHL	2.92
RAQMGRNEYRKLHPVLHKEEKQHL	3.79
RAQMQRNEYRKLHPVLHKEEKQHL	3.89

Variant	protein stability index
RAQMCRNEYRKLHPVLHKEEKQHL	2.02
RAQMLRNEYRKLHPVLHKEEKQHL	3.92
RAQMNRNEYRKLHPVLHKEEKQHL	4.04
RAQMVRNEYRKLHPVLHKEEKQHL	3.15
RAQMDRNEYRKLHPVLHKEEKQHL	4.2
RAQMARNEYRKLHPVLHKEEKQHL	4.03
RAQMERNEYRKLHPVLHKEEKQHL	4.06
RAQMPRNEYRKLHPVLHKEEKQHL	3.83
RAQMKRNEYRKLHPVLHKEEKQHL	3.21
RAQMWRNEYRKLHPVLHKEEKQHL	2.87
RAQMSRNEYRKLHPVLHKEEKQHL	3.67
RAQMHRNEYRKLHPVLHKEEKQHL	3.56
RAQMMRNEYRKLHPVLHKEEKQHL	3.39
RAQMIRNRYRKLHPVLHKEEKQHL	2.89
RAQMIRNSYRKLHPVLHKEEKQHL	2.91
RAQMIRNYYRKLHPVLHKEEKQHL	2.51
RAQMIRNTYRKLHPVLHKEEKQHL	2.56
RAQMIRNHYRKLHPVLHKEEKQHL	2.78
RAQMIRNLYRKLHPVLHKEEKQHL	1.75
RAQMIRNFYRKLHPVLHKEEKQHL	2.91
RAQMIRNMYRKLHPVLHKEEKQHL	2.2
RAQMIRNQYRKLHPVLHKEEKQHL	2.75
RAQMIRNIYRKLHPVLHKEEKQHL	2.39
RAQMIRNCYRKLHPVLHKEEKQHL	2.59

Variant	protein stability index
RAQMIRNAYRKLHPVLHKEEKQHL	2.16
RAQMIRNVYRKLHPVLHKEEKQHL	2.33
RAQMIRNNYRKLHPVLHKEEKQHL	3
RAQMIRNGYRKLHPVLHKEEKQHL	2.84
RAQMIRNKYRKLHPVLHKEEKQHL	2.92
RAQMIRNPYRKLHPVLHKEEKQHL	2.72
RAQMIRNDYRKLHPVLHKEEKQHL	3.21
RAQMIRNWYRKLHPVLHKEEKQHL	1.33
RAQMIGNEYRKLHPVLHKEEKQHL	3.96
RAQMITNEYRKLHPVLHKEEKQHL	3.89
RAQMINNEYRKLHPVLHKEEKQHL	4.15
RAQMIQNEYRKLHPVLHKEEKQHL	3.63
RAQMISNEYRKLHPVLHKEEKQHL	3.52
RAQMIMNEYRKLHPVLHKEEKQHL	2.19
RAQMIENEYRKLHPVLHKEEKQHL	3.48
RAQMIANEYRKLHPVLHKEEKQHL	3.07
RAQMIPNEYRKLHPVLHKEEKQHL	3.57
RAQMIFNEYRKLHPVLHKEEKQHL	2.44
RAQMIKNEYRKLHPVLHKEEKQHL	3.39
RAQMIVNEYRKLHPVLHKEEKQHL	3.52
RAQMIYNEYRKLHPVLHKEEKQHL	2.57
RAQMIINEYRKLHPVLHKEEKQHL	1.89
RAQMILNEYRKLHPVLHKEEKQHL	2.15
RAQMIDNEYRKLHPVLHKEEKQHL	4.3

Variant	protein stability index
RAQMIHNEYRKLHPVLHKEEKQHL	3.54
RAQMICNEYRKLHPVLHKEEKQHL	3.67
RAQMIWNEYRKLHPVLHKEEKQHL	1.77
RAQMIRKEYRKLHPVLHKEEKQHL	3.44
RAQMIRLEYRKLHPVLHKEEKQHL	3.49
RAQMIRVEYRKLHPVLHKEEKQHL	2.64
RAQMIRWEYRKLHPVLHKEEKQHL	1.96
RAQMIRDEYRKLHPVLHKEEKQHL	3.35
RAQMIREEYRKLHPVLHKEEKQHL	2.32
RAQMIRHEYRKLHPVLHKEEKQHL	3.28
RAQMIRYEYRKLHPVLHKEEKQHL	2.74
RAQMIRGEYRKLHPVLHKEEKQHL	3.08
RAQMIRPEYRKLHPVLHKEEKQHL	4.17
RAQMIRQEYRKLHPVLHKEEKQHL	3.33
RAQMIRIEYRKLHPVLHKEEKQHL	2.57
RAQMIRSEYRKLHPVLHKEEKQHL	2.83
RAQMIRFEYRKLHPVLHKEEKQHL	2.44
RAQMIRMEYRKLHPVLHKEEKQHL	2.98
RAQMIRREYRKLHPVLHKEEKQHL	3.15
RAQMIRAEYRKLHPVLHKEEKQHL	2.39
RAQMIRTEYRKLHPVLHKEEKQHL	3.3
RAQMIRCEYRKLHPVLHKEEKQHL	3
